Results as given in patent US20240209095A1 (DEVELOPMENT CENTER FOR BIOTECHNOLOGY, published 2024).

What was measured:
[1] = biological target: T1, PDL1-hFc (UniProt Q9NZQ7 19-238); experiment: ELISA titration on PDL1-hFc 1 ug/ml, 45 nM to 2.7×10^-3 nM, one site-specific binding fit
T1 construct: Coated at 1 µg/ml in the ELISAs of the chimeric and humanized antibodies; construct not described
Experimental: (§1) ELISA plates were coating with PDL1-hFc 1 ug/ml and blocked by 5% milk PBS, then add assay antibodies form 45 nM to 2.7×10⁻³ nM dilute (4× fold dilution). Assay will measured by add goat anti-human KAPPA HRP IgG 1:4000 and binding curve and KD was determined by GraphPad Prism software using One site-specific binding for none linear fit methods.

[2] = biological target: T1, PDL1-hFc; experiment: ELISA, PDL1-hFc coated 1 µg/ml, antibody supernatant at 300 ng/ml, anti-human Kappa HRP
Experimental: The binding activity of humanized antibodies could be efficiently compared by all combination of heavy chains and light chains using mini scale antibody expression. The concentration of antibodies in culture supernatant was determent by anti-human IgG ELISA. For PDL1 ELISA, plates were coating with PDL1-hFc 1 μg/ml and blocked by 5% milk PBS. Assay antibodies were adjusted to 300 ng/ml, 100 μl/well. Anti-PDL1 signals were measured by secondary goat anti-human Kappa HRP IgG 1:4000 and color developed by TMB substrates (KPL). Optical absorption value was measured at OD450-655 nm by Bio-Rad ELISA reader.

[3] = biological target: human PD-L1 expressed on cells (HCC827 cells; PD-L1 aAPC/CHO-K1 cells) (human, UniProt Q9NZQ7 19-290); experiment: cell-based or functional assay
Chain of human PD-L1 expressed on cells (HCC827 cells; PD-L1 aAPC/CHO-K1 cells) (Q9NZQ7 19-290): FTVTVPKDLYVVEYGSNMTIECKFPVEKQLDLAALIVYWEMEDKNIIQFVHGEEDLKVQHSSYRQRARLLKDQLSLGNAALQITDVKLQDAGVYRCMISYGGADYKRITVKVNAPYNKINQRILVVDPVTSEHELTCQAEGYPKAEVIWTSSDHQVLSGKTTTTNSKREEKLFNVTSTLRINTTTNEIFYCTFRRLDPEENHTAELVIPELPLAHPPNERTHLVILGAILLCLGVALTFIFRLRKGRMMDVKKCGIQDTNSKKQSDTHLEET

[4] = biological target: T1, PDL1-hFc; experiment: ELISA titration on PDL1-hFc, KD compared with parental 3C3 (FIG. 10)
Experimental: as §1

T1 sequence (Q9NZQ7 19-238): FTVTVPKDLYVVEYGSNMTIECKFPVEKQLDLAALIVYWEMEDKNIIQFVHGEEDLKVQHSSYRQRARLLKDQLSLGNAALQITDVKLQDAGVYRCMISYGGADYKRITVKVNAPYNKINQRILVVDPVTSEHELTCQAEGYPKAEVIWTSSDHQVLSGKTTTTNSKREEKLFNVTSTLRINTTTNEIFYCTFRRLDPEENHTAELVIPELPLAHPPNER

Binder	Kd [1]	OD450-650 nM, 300 ng/ml PDL1 binding [2]	3C3 humanized antibodies Blockade Reporter Assay EC50 [3]	fold affinity loss against parental mouse clone 3C3 [4]
1G8 humanized antibody HuB2Hu0 (antibody, V domains shown, Human IgG, kappa, from pTCAED vectors; also called 1G8 HuB2Hu0) VH: EVQLQESGPGLVKPSQTLSLTCTVSGYSITSDYWNWIRKPPGKGLEYMGYISYTGSTYYNPSLKSRITISRDTSKNQYSLKLSSVTAADTAVYYCARRGEWLSPFAYWGQGTLVTVSS VL: not shown	238 pM			
3C3 humanized antibody HuHu0 (antibody, V domains shown, Human IgG, kappa, from pTCAED vectors; also called 3C3 heavy chain Hu / light chain Hu0) VH: QVQLQESGPGLVKPSQTLSLTCTVSGYSITSDYWDWIRQPPGKGLEWIGYISYTGSTYYNPSLRSRVTISVDTSKNQFSLKLSSVTAADTAVYYCARRGGWLSPFVYWGQGTLVTVSS VL: DIVMTQSPDSLAVSLGERATINCKSRQSLLFSSNQKNSLAWYQQKPGQPPKLLIYWASTRESGVPDRFSGSGSGTDFTLTISSLQAEDVAVYYCQQYYTYPFTFGQGTKLEIK		0.15 OD		
1G8 humanized antibody HuB2Hu (antibody, V domains shown, Human IgG, kappa, from pTCAED vectors; also called 1G8 HuB2Hu) VH: EVQLQESGPGLVKPSQTLSLTCTVSGYSITSDYWNWIRKPPGKGLEYMGYISYTGSTYYNPSLKSRITISRDTSKNQYSLKLSSVTAADTAVYYCARRGEWLSPFAYWGQGTLVTVSS VL: DIQMTQSPSSLSASVGDRVTITCKSSQSLLYSSNQKNSLAWYQQKPGKAPKLLIYWASTRESGVPSRFSGSGSGTDFTLTISSLQPEDFATYYCQQYYTYPFTFGQGTKLEIK	248 pM			
1G8 humanized antibody HuHu (antibody, V domains shown, Human IgG, kappa, from pTCAED vectors; also called 1G8 HuHu) VH: QVQLQESGPGLVKPSQTLSLTCTVSGYSITSDYWNWIRQPPGKGLEWIGYISYTGSTYYNPSLKSRVTISVDTSKNQFSLKLSSVTAADTAVYYCARRGEWLSPFAYWGQGTLVTVSS VL: DIQMTQSPSSLSASVGDRVTITCKSSQSLLYSSNQKNSLAWYQQKPGKAPKLLIYWASTRESGVPSRFSGSGSGTDFTLTISSLQPEDFATYYCQQYYTYPFTFGQGTKLEIK	3240 pM			
1G8 humanized antibody HuHu0 (antibody, V domains shown, Human IgG, kappa, from pTCAED vectors; also called 1G8 HuHu0) VH: QVQLQESGPGLVKPSQTLSLTCTVSGYSITSDYWNWIRQPPGKGLEWIGYISYTGSTYYNPSLKSRVTISVDTSKNQFSLKLSSVTAADTAVYYCARRGEWLSPFAYWGQGTLVTVSS VL: not shown	3990 pM			
1G8 humanized antibody HuHu2 (antibody, V domains shown, Human IgG, kappa, from pTCAED vectors; also called 1G8 HuHu2) VH: QVQLQESGPGLVKPSQTLSLTCTVSGYSITSDYWNWIRQPPGKGLEWIGYISYTGSTYYNPSLKSRVTISVDTSKNQFSLKLSSVTAADTAVYYCARRGEWLSPFAYWGQGTLVTVSS VL: DIVMTQTPLSLSVTPGQPASISCKSSQSLLYSSNQKNSLAWYLQKPGQSPQLLIYWASTRESGVPDRFSGSGSGTDFTLKISRVEAEDVGVYYCQQYYTYPFTFGQGTKLEIK	9680 pM			
3C3 humanized antibody HuB2Hu (antibody, V domains shown, Human IgG, kappa, from pTCAED vectors; also called 3C3-HuB2Hu; 3C3 HuB2Hu) VH: EVQLQESGPGLVKPSQTLSLTCTVSGYSITSDYWDWIRKPPGKGLEYMGYISYTGSTYYNPSLRSRITISRDTSKNQYSLKLSSVTAADTAVYYCARRGGWLSPFVYWGQGTLVTVSS VL: DIQMTQSPSSLSASVGDRVTITCKSRQSLLFSSNQKNSLAWYQQKPGKAPKLLIYWASTRESGVPSRFSGSGSGTDFTLTISSLQPEDFATYYCQQYYTYPFTFGQGTKLEIK	93.6 pM	1.35 OD	441 pM	< 2 fold
3C3 heavy chain Hu-B2 / light chain M (antibody, V domains shown, Human IgG, kappa, from pTCAED vectors; tested as culture supernatant) VH: EVQLQESGPGLVKPSQTLSLTCTVSGYSITSDYWDWIRKPPGKGLEYMGYISYTGSTYYNPSLRSRITISRDTSKNQYSLKLSSVTAADTAVYYCARRGGWLSPFVYWGQGTLVTVSS VL: DTVMSQSPSSLGVSVGERVTLTCKSRQSLLFSSNQKNSLAWYQQKPGQSPKLLIYWASTRESGVPDRFTGSGSGTDFTLTISSVKSEDLAVYYCQQYYTYPFTFGAGTSLELK		1.2 OD		
3C3 heavy chain Hu / light chain M (antibody, V domains shown, Human IgG, kappa, from pTCAED vectors; tested as culture supernatant) VH: QVQLQESGPGLVKPSQTLSLTCTVSGYSITSDYWDWIRQPPGKGLEWIGYISYTGSTYYNPSLRSRVTISVDTSKNQFSLKLSSVTAADTAVYYCARRGGWLSPFVYWGQGTLVTVSS VL: DTVMSQSPSSLGVSVGERVTLTCKSRQSLLFSSNQKNSLAWYQQKPGQSPKLLIYWASTRESGVPDRFTGSGSGTDFTLTISSVKSEDLAVYYCQQYYTYPFTFGAGTSLELK		0.25 OD		
3C3 humanized antibody HuB2Hu0 (antibody, V domains shown, Human IgG, kappa, from pTCAED vectors; also called 3C3-HuB2Hu0; 3C3 HuB2Hu0) VH: EVQLQESGPGLVKPSQTLSLTCTVSGYSITSDYWDWIRKPPGKGLEYMGYISYTGSTYYNPSLRSRITISRDTSKNQYSLKLSSVTAADTAVYYCARRGGWLSPFVYWGQGTLVTVSS VL: DIVMTQSPDSLAVSLGERATINCKSRQSLLFSSNQKNSLAWYQQKPGQPPKLLIYWASTRESGVPDRFSGSGSGTDFTLTISSLQAEDVAVYYCQQYYTYPFTFGQGTKLEIK	108 pM	1.13 OD	477 pM	< 2 fold
